This is an account of results in patent publication US20180186880A1 (TRELLIS BIOSCIENCE, published 2018).

The labels stand for the following.
T1: TIM-3 ECD (extracellular domain of T cell immunoglobulin and mucin domain 3 protein) (UniProt Q8TDQ0 22-202, limits assumed)
T1 construct: extracellular domain; also called CD366
T1 sequence (looked up): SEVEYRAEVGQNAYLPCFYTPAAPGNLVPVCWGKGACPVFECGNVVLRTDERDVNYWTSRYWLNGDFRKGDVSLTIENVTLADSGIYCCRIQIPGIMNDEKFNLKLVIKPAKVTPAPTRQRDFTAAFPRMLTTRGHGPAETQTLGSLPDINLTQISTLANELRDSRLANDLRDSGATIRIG

B1: TRL6061 (antibody, V domains shown)
VH: QVQLVESGGGVVQPGRSLRLSCAASGFMFSTSAMHWVRQTPGKGLEWLAVIWHDGSEKYYADSVKGRFSISRDNYRDTLYLQMNNLRVEDTAIYYCRGGDVYEIWGQGTMVAVSS
VL: DDIMLTQPPSVSVSPGQTARITCSGDAVAKRYVYWYQQKSGQAPVLVMYEDNKRPSGIPERFSGSSSGTKATLTITGALVEDEADYYCYSTDSSGNLGAFGGGSKLTVL
notes: Lambda light chain
B2: TRL6042 (antibody, V domains shown)
VH: QVQLVESGAEVKKPGESLKISCEGSGYKFTSYWIGWVRQMPGRGPEWMGLIYPSDSDTRYSPSFRGQVTISVDKTISTAYLQWSSLKTSDTAIYYCARLLLATECTSDSCFGDAFDIWGQGTMVTVSS
VL: DIVLTQSPTFLSASVGDRVTITCRASQGISSYLAWYQQKPGKAPKLLLYAASTLQSGVPSRFSGSRSGTEFTLTISSLQPEDFASYYCQQFHNYPFTFGGGTKVEIKR
notes: Native human mAb produced recombinantly; Kappa light chain; also called TIM-3 TRLmAb 6042
B3: TRL6120 (antibody, V domains shown)
VH: QVQLVESGGGVVQPGRSLRLSCVASGFIFRTYAMHWVRQAPGKGLEWVAVIWPDGSERYYSDSTKGRFTVSRDNSKNTLFLQMNSLRVDDTAMYYCFARGYSDSDYADHWGRGTRVTVSS
VL: DIVMTQSPSVSVSPGQTARITCSGDALSTKFAYWYQQKSGQAPVLVIYEDNKRPSGIPERFSGSGSGTMATLSVSEAQVEDEADYYCFSSDSSGNLFMFGGGTKLTVL
notes: Lambda light chain; also called TIM-3 TRLmAb 6120
B4: TRL6099 (antibody, V domains shown)
VH: QVQLVESGAEVKKPGASVKVSCKAFNYTFTSYGISWVRQTPEHGLEWMGWITNSNSNSAQKFQGRVSMTTDTSTSTAYMQLRSLSSDDTAVYYCARIYIDYNNYGLDVWGQGTTVTVSS
VL: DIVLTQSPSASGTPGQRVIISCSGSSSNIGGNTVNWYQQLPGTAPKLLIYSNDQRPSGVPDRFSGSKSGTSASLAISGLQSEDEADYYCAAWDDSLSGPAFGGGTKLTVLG
notes: Lambda light chain

The test deals with T1, TIM-3 ECD (extracellular domain of T …). Nature of the test: adsorption ELISA on TIM-3 ECD, serial dilutions of purified mAb, estimate of binding affinity. How it is done: Purified mAbs were tested in adsorption ELISA using TIM-3 ECD, generated by Trellis in mammalian cells.
On to B1, for which the Affinity is 0.005 nM.

As for B2, the Affinity was 5 nM.

B3: the Affinity was 28 nM.

With B4, the Affinity is 0.011 nM.
